The assay deals with PF-4 in cynomolgus plasma (cynomolgus). As to the kind of experiment: aligned sandwich ELISA, cynomolgus plasma. A general note: In an ELISA, binding on a coated surface is turned into a signal by an enzyme label.

In the case of “monoclonal anti-HPF4 antibody (Abcam cat. no.: ab49735)”, the AUC Ratio (vs anti-HPF4) was 1 and the anti-HPF4 AUC mean was 2.79.

Values taken from patent US20160000891A1.
